In the experiment the target is TOLLIP, recombinant from bacteria, biotinylated (human, UniProt Q9H0E2 1-274, biotin (biotinylated TOLLIP; site not told)). In words: BLI. A general note: Biolayer interferometry detects binding as a change in optical thickness at a sensor tip.

B1: GST-BLK (B lymphoid tyrosine kinase), recombinant from bacteria (enzyme)
chain: not shown
modifications: autophosphorylated as purified (Fig. S5 C); sites not told for this sample
The Kd is the equilibrium constant for the complex coming apart. As to B1, the Kd is ~8.39 nM.

Values taken from publication PMC10711807 (The Journal of Cell Biology, 2023).
